Results taken from paper doi:10.1101/851261.

How the values were obtained:
[1] = target: AjKissR1 (Apostichopus japonicus); experiment: flow cytometry on cells
[2] = target: AjKissR2 (Apostichopus japonicus); experiment: flow cytometry on cells

Row | IC50 [1] [nM] | IC50 [2] [nM] | Substance
1 | 353 | – | AjKiss1b (peptide)
2 | – | 95.2 | AjKiss1a (peptide)
